Laboratory results: patent US20190284560

Test system: Bevacizumab (Avastin; anti-VEGF humanized monoclonal antibody) (Homo sapiens (humanized antibody)?)
Conditions: quartz crystal microbalance (AFFINIX Q8), velocity analysis; Bevacizumab immobilized on sensor; phosphate buffer (DPBS); aptamer 1.48-2.91 uM; sequence …

“CCGTGTGGTGGGGGTTGGGGGTTGTCGTTCGCCG [Bevacizumab DNA aptamer SEQ ID NO: 1]” gave a Kd of 9.1 µM.
